Test results reported in PMC4936896, “Primate TRIM5 proteins form hexagonal nets on HIV-1 capsids” (eLife, 2016).

B1: owl monkey TRIMCyp (Aotus trivirgatus) (natural protein)
chain: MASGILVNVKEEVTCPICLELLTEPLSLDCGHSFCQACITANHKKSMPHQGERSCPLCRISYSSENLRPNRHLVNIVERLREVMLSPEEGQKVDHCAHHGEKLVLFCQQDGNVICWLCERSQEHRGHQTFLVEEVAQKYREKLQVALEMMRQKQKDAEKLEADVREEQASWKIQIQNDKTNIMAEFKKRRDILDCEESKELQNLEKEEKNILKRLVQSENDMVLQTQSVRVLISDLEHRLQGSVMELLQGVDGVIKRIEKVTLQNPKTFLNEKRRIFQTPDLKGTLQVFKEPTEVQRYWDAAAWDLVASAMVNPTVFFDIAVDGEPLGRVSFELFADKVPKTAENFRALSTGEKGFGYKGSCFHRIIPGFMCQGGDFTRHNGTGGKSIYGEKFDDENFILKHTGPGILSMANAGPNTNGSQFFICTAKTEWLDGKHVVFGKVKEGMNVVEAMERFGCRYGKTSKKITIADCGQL
B2: proteolysis-resistant owl monkey TRIMCyp_(K283D,Q287D) (natural protein)
chain: not shown
B3: chimpanzee TRIM5α (Pan troglodytes) (natural protein, chimpanzee (Pan troglodytes), UniProt Q5D7J1 1-493, looked up)
chain: MASGILVNVKEEVTCPICLELLTQPLSLDCGHSFCQACLTANHKKSMLDKGESSCPVCRISYQPENIRPNRHVANIVEKLREVKLSPEGQKVDHCAHHGEKLLLFCQEDGKVICWLCERSQEHRGHHTFLTEEVAREYQVKLQAALEMLRQKQQEAEELEADIREEKASWKTQIQYDKTNVLADFEQLRDILDWEESNELQNLEKEEEDILKSLTKSETEMVQQTQSVRELISDLERRLQGSVMELLQGVDGVIKRMENVTLKKPETFPKNQRRVFRAPDLKGMLEVFRELTDVRRYWVDVTVAPNNISCAVISEDMRQVSSPKPQIIYGARGTRYQTFMNFNYCTGILGSQSITSGKHYWEVDVSKKSAWILGVCAGFQPDAMCNIEKNENYQPKYGYWVIGLEEGVKCSAFQDGSFHTPSAPFIVPLSVIICPDRVGVFLDYEACTVSFFNITNHGSLIYKFSHCSFSQPVFPYLNPRKCGVPMTLCSPSS
notes: also called TRIM5αcpz
B4: African green monkey TRIM5α (Chlorocebus pygerythrus) (natural protein, UniProt Q5C8U4 1-515, looked up)
chain: MASGILVNVKEEVTCPICLELLTEPLSLPCGHSLCQACITANHKESMLYKEEERSCPVCRISYQPENIQPNRHVANIVEKLREVKLSPEEGQKVDHCARHGEKLLLFCQEDSKVICWLCERSQEHRGHHTFLMEEVAQEYHVKLQTALEMLRQKQQEAEKLEADIREEKASWKIQIDYDKTNVSADFEQLREILDWEESNELQNLEKEEEDILKSLTKSETEMVQQTQYMRELISDLEHRLQGSMMELLQGVDGIIKRVENMTLKKPKTFHKNQRRVFRAPDLKGMLDMFRELTDVRRYWVDVTLAPNNISHAVIAEDKRQVSYRNPQIMYQSPGSLFGSLTNFSYCTGVPGSQSITSGKLTNFNYCTGVLGSQSITSGKHYWEVDVSKKSAWILGVCAGFQPDATYNIEQNENYQPKYGYWVIGLQEGDKYSVFQDGSSHTPFAPFIVPLSVIICPDRVGVFVDYEACTVSFFNITNHGFLIYKFSQCSFSKPVFPYLNPRKCTVPMTLCSPSS
notes: also called TRIM5α_(AGMpyg); TRIM5_(AGMpyg)

Target: the molecule itself
Experiment: SEC; final gel filtration step, HiLoad 16/600 Superdex 200 in 20 mM CHES, 100 nM ZnCl2, 1 mM TCEP, pH 10.0, 4°C; oligomer judged from retention time

Stoichiometry N, 2:
B1
B2
B3
B4
